# Laboratory results: patent US20070248604A1 (Genentech, published 2007)
# Experiments:
# hu FGF-19-His [1] = molecular target: T1, hu FGF-19-His (human, UniProt O95750 25-216, limits assumed); assay: ELISA, FGF19-His captured on nickel plates, HRP anti-mouse IgG detection; ELISA binding EC50
# T1 construct: Analyte in SPR; Construct limits and tag not described; not shown: His tag
# Excerpt: (§1) Non-specific binding sites of HisGrab Nickel coated plates (Pierce) were saturated with PBS/3% BSA. […] The bound antibodies were detected using a HRP conjugated anti-mouse IgG (Jackson Immunoresearch) and the TMB peroxydase colorigenic substrate (KPL).
# hu FGF-19-His [2] = molecular target: T1, hu FGF-19-His; assay: solid phase antibody binding assay: FGF19-His captured on nickel coated plates, HRP anti-mouse IgG
# Excerpt: as §1
# hu FGF-19-His [3] = molecular target: T1, hu FGF-19-His; assay: SPR, BIAcore-3000, antibody coupled to CM5 chip (~500 RU), FGF19-His injected 0.7-500 nM, 25 C, 1:1 Langmuir model
# Experimental: Briefly, carboxymethylated dextran biosensor chips (CM5, BIAcore Inc.) were activated with N-ethyl-N′-(3-dimethylaminopropyl)-carbodiimide hydrochloride (EDC) and N-hydroxysuccinimide (NHS) according to the supplier's instructions. […] Next, 1M ethanolamine was injected to block unreacted groups. […] Association rates (kₒₙ) and dissociation rates (koff) were calculated using a simple one-to-one Langmuir binding model (BIAcore Evaluation Software version 3.2).
# FGF19 protein [4] = molecular target: T2, FGF19 protein (human, UniProt O95750 25-216, limits assumed); assay: solid phase receptor binding assay, blocking: FGF19 binding to captured FGFR4-Fc with antibody titrated
# T2 construct: 125I-labelled for the Scatchard analysis. 'Human' is stated for hu FGF-19-His and for the anti-human FGF19 antibodies, not in these assay descriptions; also called Fibroblast growth factor 19; [125I]FGF19
# T2 sequence (O95750 25-216 limits assumed): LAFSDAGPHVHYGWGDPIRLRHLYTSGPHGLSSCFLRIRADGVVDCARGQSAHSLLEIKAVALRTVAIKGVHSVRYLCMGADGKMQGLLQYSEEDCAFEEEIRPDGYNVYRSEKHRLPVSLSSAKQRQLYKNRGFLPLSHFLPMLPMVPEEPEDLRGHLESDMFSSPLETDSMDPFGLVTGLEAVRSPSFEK
# Experimental: (§2) Maxisorb 96 well plates were coated overnight at 4° C. with 50 μl of 2 μg/ml anti-human immunoglobulin Fcγ fragment specific antibody (Jackson Immunoresearch) and used to capture 1 μg/ml FGFR-Fc chimeric proteins (R & D Systems).
# FGF19 protein [5] = molecular target: T2, FGF19 protein; assay: solid phase receptor binding assay: FGF19 binding to captured FGFR4-Fc with antibody present; solid phase receptor binding assay, blocking of FGF19 binding to FGFR4
# Experimental: as §2
# T1 sequence (O95750 25-216 limits assumed): as above
binder,measurement,setting,value
"mouse anti-human FGF19 monoclonal antibody 1A6 (antibody, V domains shown, Mouse hybridoma monoclonal antibody, purified from ascites on protein A-agarose; also called anti-FGF19 mab 1A6; anti-FGF19 Mab 1A6) VH: QVQLKQSGPGLVQPSQSLSITCTVSGFSLTTYGVHWVRQSPGKGLEWLGVIWPGGGTDYNAAFISRLSITKDNSKSQVFFKMNSLLANDTAIYFCVRKEYANLYAMDYWGQGTLLTVSA VL: DIKMTQSPSSMYASLGERVTIPCKASQDINSFLSWFQQKPGKSPKTLIYRANRLVDGVPSRFSGSGSGQDYSLTISSLEYEDMGIYYCLQYDEFPLTFGAGTKVEIKR",EC50,hu FGF-19-His [1],0.04 nM
same,EC50 (read off the curve),hu FGF-19-His [2],~0.03 µg/mL
same,Kd,hu FGF-19-His [3],< 0.009 nM
same,IC50 (read off the curve),FGF19 protein [4],~0.5 µg/mL
same,IC50,FGF19 protein [5],3 nM
